The chains are these.
B1: Syn-Ang-VEGFR-11: fused protein synergibody SAITAng-2-3 × DTN6VEGFR-2-1, peptide at C-terminal of heavy chain (protein)
heavy (part 1 of 2): DVQLVESGGGLVQPGGSRKLSCAASGFTFSSFGMHWVRQAPEKGLEWVAYISSDSSTIYYADTVKGRFTISRDNPKNTLFLQMTSLRSEDTAMYYCAREGGYDDYYAMDYWGQGTSVTVSS
heavy (part 2 of 2): TGSDDLCYTFPCMHY
light: DIQMTQSPASQSASLGESVTITCLASQTIGTWLAWYQQKPGKSPQLLIYAATSLADGVPSRFSGSGSGTKFSFKISSLQAEDFVSYYCQQLYSIPLTFGGGTKLEIK
modifications: left off: a dimerising Fc or GST
notes: fused protein synergibody SAITAng-2-3 × DTN6VEGFR-2-1, peptide at C-terminal of heavy chain
B2: Syn-Ang-VEGFR-14: fused protein synergibody SAITAng-2-3 × DTN10VEGFR-2-4, peptide at C-terminal of heavy chain (protein)
heavy (part 1 of 2): B1 heavy (part 1 of 2)
heavy (part 2 of 2): TGSGRMCDGSGPPTNCWFT
light: B1 light
modifications: left off: a dimerising Fc or GST
notes: fused protein synergibody SAITAng-2-3 × DTN10VEGFR-2-4, peptide at C-terminal of heavy chain
B3: Syn-Ang-VEGFR-12: fused protein synergibody SAITAng-2-3 × DTN8VEGFR-2-2, peptide at C-terminal of heavy chain (protein)
heavy (part 1 of 2): B1 heavy (part 1 of 2)
heavy (part 2 of 2): EAGKETCGYEWQYCPRP
light: B1 light
modifications: left off: a dimerising Fc or GST
notes: fused protein synergibody SAITAng-2-3 × DTN8VEGFR-2-2, peptide at C-terminal of heavy chain
B4: Syn-Ang-VEGFR-13: fused protein synergibody SAITAng-2-3 × DTN9VEGFR-2-3, peptide at C-terminal of heavy chain (protein)
heavy (part 1 of 2): B1 heavy (part 1 of 2)
heavy (part 2 of 2): EAGAYWCKAWGLSPCLVT
light: B1 light
modifications: left off: a dimerising Fc or GST
notes: fused protein synergibody SAITAng-2-3 × DTN9VEGFR-2-3, peptide at C-terminal of heavy chain
B5: Syn-Ang-VEGFR-6: fused protein synergibody SAITAng-2-2 × DTN6VEGFR-2-1, peptide at C-terminal of heavy chain (protein)
heavy (part 1 of 2): QVQLQQSGPELVKPGASVKMSCKASGYTFTDYVISWVKQRTGQGLEWIGEIYPGSGSTYYNEKFKGKASLTADKSSNTAYMQLSSLTSADSAVYFCVRSRGDYYAMDYWGQGTSVTVSS
heavy (part 2 of 2): TGSDDLCYTFPCMHY
light: DIQMTQSPSSLSASLGGKVTITCKASQDINNYITWYQHKPGKGPRLLIHYTSTLQPGIPSRFSGSGSGRDYSFSISNLEPEDIATYYCLQYDNLLTFGGGTKLEIK
modifications: left off: a dimerising Fc or GST
notes: fused protein synergibody SAITAng-2-2 × DTN6VEGFR-2-1, peptide at C-terminal of heavy chain
B6: Syn-Ang-VEGFR-10: fused protein synergibody SAITAng-2-2 × DTN11VEGFR-2-5, peptide at C-terminal of heavy chain (protein)
heavy (part 1 of 2): B5 heavy (part 1 of 2)
heavy (part 2 of 2): PGSQGYCHLNMRYQWICDSE
light: B5 light
modifications: left off: a dimerising Fc or GST
notes: fused protein synergibody SAITAng-2-2 × DTN11VEGFR-2-5, peptide at C-terminal of heavy chain
B7: Syn-Ang-VEGFR-7: fused protein synergibody SAITAng-2-2 × DTN8VEGFR-2-2, peptide at C-terminal of heavy chain (protein)
heavy (part 1 of 2): B5 heavy (part 1 of 2)
heavy (part 2 of 2): EAGKETCGYEWQYCPRP
light: B5 light
modifications: left off: a dimerising Fc or GST
notes: fused protein synergibody SAITAng-2-2 × DTN8VEGFR-2-2, peptide at C-terminal of heavy chain
B8: Syn-Ang-VEGFR-9: fused protein synergibody SAITAng-2-2 × DTN10VEGFR-2-4, peptide at C-terminal of heavy chain (protein)
heavy (part 1 of 2): B5 heavy (part 1 of 2)
heavy (part 2 of 2): TGSGRMCDGSGPPTNCWFT
light: B5 light
modifications: left off: a dimerising Fc or GST
notes: fused protein synergibody SAITAng-2-2 × DTN10VEGFR-2-4, peptide at C-terminal of heavy chain
B9: Syn-Ang-VEGFR-8: fused protein synergibody SAITAng-2-2 × DTN9VEGFR-2-3, peptide at C-terminal of heavy chain (protein)
heavy (part 1 of 2): B5 heavy (part 1 of 2)
heavy (part 2 of 2): EAGAYWCKAWGLSPCLVT
light: B5 light
modifications: left off: a dimerising Fc or GST
notes: fused protein synergibody SAITAng-2-2 × DTN9VEGFR-2-3, peptide at C-terminal of heavy chain

The results in this text go back to US20110076723A1, “ANTIBODY-PEPTIDE FUSED SYNERGIBODY” (SAMSUNG ELECTRONICS CO., LTD., priority 2008, published 2011).

Where a SMILES comes first, the peptide text is derived from it. Bridges are numbered along the chain shown (N, C = ends).

The test system of one experiment is HUVEC. The experiment is described as follows: Cell-based functional assay, endothelial cell tube formation (BD BioCoat Angiogenesis System). The following applies: 5 μM fused protein synergibody, 18 hours; unrelated control group 12,227 ± 1,232. Set-up: species or system human. The procedure:
Chimeric antibodies may be screened by functional assays such as cell-based assay for inhibition activity. In this example, BD BioCoat™ Angiogenesis System-Endothelial Cell Tube Formation (BD Biosciences) is used. BD Falcon 96-well Black/Clear plate coated with BD Matrigel Matrix that had been stored at −20° C. is slowly melted at 4° C. for 6 hours, and the mat cover of the plate is removed inside a sterile clean bench. Then it is left at 37° C. , 5% CO2 for 30 minutes so that the Matrigel™ Matrix would form polymers. Then it is made into a suspension by treating HUVEC, cultured on a petridish containing EGM-2 MV (Lonza) medium added with 10% fetal bovine serum to 70 to 80% confluence, with 0.5% Trypsin-EDTA (Gibco). Then it is resuspended in a culture medium containing 10% fetal bovine serum to a cell concentration of 4×10^5 cells/ml. At this time, 5 μM of each anti-Ang-2 chimeric antibodies expressed and purified in Section 5 above are also added and resuspended. Then 50 μl (about 2×10^4 cells) of each of the suspension is added to each well of the plate and incubated at 37° C. , 5% CO2 for 18 hours. Then the medium is removed and each well is washed twice with 100 μl of Hanks' balanced salt solution (HBSS, Invitrogen) ensuring that the tubes of the cells formed on BD Matrigel™ Matrix are not damaged. 50 μl of calcein AM (BD sciences) dissolved in HBSS at the concentration of 8 μg/ml is added to each well. The plate is then left to react at 37° C., 5% CO2 for 30 minutes and the calcein AM (BD sciences) solution is removed and washed twice with HBSS. Lastly, an image of the length of the entire tube of HUVEC formed on BD Matrigel™ Matrix is obtained on a fluorescent microscope and analyzed by using MetaMorph® software (Universal Imaging Corporation™, http://www.moleculardevices.com).
The peptides synthesized in Section 6A above are screened by cell-based functional assay for inhibition activity. The method described in Example 1, Section 7 is used, except that 5 μM synthesized peptides are added instead of anti-Ang-2 antibodies.
The fused protein synergibodies prepared in Section 1 above are screened using cell-based functional assay for inhibition activity. The method described in Example 1, Section 7 is used, except that, in this example, 5 μM of fused protein synergibodies are added instead of anti-Ang-2 antibodies.
With B1, the “Length of entire tube of HUVEC (2 × 10^4 cells) (pixels)” value (“Length of entire tube of HUVEC” for short) was 3,925 ± 675 pixels.

Consider B2, for which the “Length of entire tube of HUVEC” value was 4,183 ± 698 pixels.

Consider B3, for which the “Length of entire tube of HUVEC” value was 3,899 ± 923 pixels.

For B4, the “Length of entire tube of HUVEC” value is 4,216 ± 747 pixels.

Take B5: the “Length of entire tube of HUVEC” value is given as 6,157 ± 1,141 pixels.

Turning to B6, the “Length of entire tube of HUVEC” value is recorded as 5,898 ± 1,037 pixels.

On to B7, for which the “Length of entire tube of HUVEC” value is recorded as 5,935 ± 995 pixels.

Turning to B8, the “Length of entire tube of HUVEC” value is given as 6,055 ± 779 pixels.

Regarding B9, the “Length of entire tube of HUVEC” value is reported as 6,244 ± 935 pixels.

The experiment is the same for the next values; noted with them: 5 μM synthesized peptide, 18 hours; unrelated control group 12,227 ± 1,232.
Consider `C[C@H](NC(=O)[C@@H](N)CCC(=O)O)C(=O)NCC(=O)N[C@@H](CCCCN)C(=O)N[C@@H](CCC(=O)O)C(=O)N[C@H](C(=O)N[C@H]1CSSC[C@@H](C(=O)N2CCC[C@H]2C(=O)N[C@@H](CCCNC(=N)N)C(=O)N2CCC[C@H]2C(=O)O)NC(=O)[C@H](Cc2ccc(O)cc2)NC(=O)[C@H](CCC(N)=O)NC(=O)[C@H](Cc2c[nH]c3ccccc23)NC(=O)[C@H](CCC(=O)O)NC(=O)[C@H](Cc2ccc(O)cc2)NC(=O)CNC1=O)[C@@H](C)O` [DTN8VEGFR-2-2] (H-EAGKETCGYEWQYCPRP-OH; disulfide 7-14; N-terminus and C-terminus assumed), for which the “Length of the entire tube of HUVEC (2 × 10^4 cells) (pixels)” value (“Length of the entire tube of HUVEC” for short) is 10,891 ± 1,014 pixels.

Consider `CSCC[C@H](NC(=O)[C@@H]1CSSC[C@H](NC(=O)[C@H](CC(C)C)NC(=O)[C@H](CC(=O)O)NC(=O)[C@H](CC(=O)O)NC(=O)[C@H](CO)NC(=O)CNC(=O)[C@@H](N)[C@@H](C)O)C(=O)N[C@@H](Cc2ccc(O)cc2)C(=O)N[C@@H]([C@@H](C)O)C(=O)N[C@@H](Cc2ccccc2)C(=O)N2CCC[C@H]2C(=O)N1)C(=O)N[C@@H](Cc1c[nH]cn1)C(=O)N[C@@H](Cc1ccc(O)cc1)C(=O)O` [DTN6VEGFR-2-1] (H-TGSDDLCYTFPCMHY-OH; disulfide 7-12; N-terminus and C-terminus assumed), for which the “Length of the entire tube of HUVEC” value was 11,093 ± 1,308 pixels.

As to `CC[C@H](C)[C@@H]1NC(=O)[C@H](Cc2c[nH]c3ccccc23)NC(=O)[C@H](CCC(N)=O)NC(=O)[C@H](Cc2ccc(O)cc2)NC(=O)[C@H](CCCNC(=N)N)NC(=O)[C@H](CCSC)NC(=O)[C@H](CC(N)=O)NC(=O)[C@H](CC(C)C)NC(=O)[C@H](Cc2c[nH]cn2)NC(=O)[C@@H](NC(=O)[C@H](Cc2ccc(O)cc2)NC(=O)CNC(=O)[C@H](CCC(N)=O)NC(=O)[C@H](CO)NC(=O)CNC(=O)[C@@H]2CCCN2)CSSC[C@@H](C(=O)N[C@@H](CC(=O)O)C(=O)N[C@@H](CO)C(=O)N[C@@H](CCC(=O)O)C(=O)O)NC1=O` [DTN11VEGFR-2-5] (H-PGSQGYCHLNMRYQWICDSE-OH; disulfide 7-17; N-terminus and C-terminus assumed), the “Length of the entire tube of HUVEC” value is 11,896 ± 1,159 pixels.

With `CC(C)C[C@@H]1NC(=O)CNC(=O)[C@H](Cc2c[nH]c3ccccc23)NC(=O)[C@H](C)NC(=O)[C@H](CCCCN)NC(=O)[C@@H](NC(=O)[C@H](Cc2c[nH]c3ccccc23)NC(=O)[C@H](Cc2ccc(O)cc2)NC(=O)[C@H](C)NC(=O)CNC(=O)[C@H](C)NC(=O)[C@@H](N)CCC(=O)O)CSSC[C@@H](C(=O)N[C@@H](CC(C)C)C(=O)N[C@H](C(=O)N[C@H](C(=O)O)[C@@H](C)O)C(C)C)NC(=O)[C@@H]2CCCN2C(=O)[C@H](CO)NC1=O` [DTN9VEGFR-2-3] (H-EAGAYWCKAWGLSPCLVT-OH; disulfide 7-15; N-terminus and C-terminus assumed), the “Length of the entire tube of HUVEC” value was 12,101 ± 869 pixels.

In the case of `CSCC[C@H](NC(=O)[C@H](CCCNC(=N)N)NC(=O)CNC(=O)[C@H](CO)NC(=O)CNC(=O)[C@@H](N)[C@@H](C)O)C(=O)N[C@H]1CSSC[C@@H](C(=O)N[C@@H](Cc2c[nH]c3ccccc23)C(=O)N[C@@H](Cc2ccccc2)C(=O)N[C@H](C(=O)O)[C@@H](C)O)NC(=O)[C@H](CC(N)=O)NC(=O)[C@H]([C@@H](C)O)NC(=O)[C@@H]2CCCN2C(=O)[C@@H]2CCCN2C(=O)CNC(=O)[C@H](CO)NC(=O)CNC(=O)[C@H](CC(=O)O)NC1=O` [DTN10VEGFR-2-4] (H-TGSGRMCDGSGPPTNCWFT-OH; disulfide 7-16; N-terminus and C-terminus assumed), the “Length of the entire tube of HUVEC” value is reported as 10,773 ± 992 pixels.
